Key:
Experiment in all cases: fluorescence polarization; WT-like, low nM apparent Kd; 20 mM HEPES pH 8.0, 10 mM NaCl, 5% glycerol, 1 mM MgCl2, 0.5 mM TCEP, 0.5 nM Cy3-ssDNA; temperature not stated
Conditions in all cases: protein: recombinant; tags: Trx-His6 removed by 3C protease; label: 5' Cy3
[1] = target: T1, RecQ4 427-1208 del944-1032 (Homo sapiens, UniProt O94761 427-943+=GG+1032-1208, internal_change)
T1 sequence: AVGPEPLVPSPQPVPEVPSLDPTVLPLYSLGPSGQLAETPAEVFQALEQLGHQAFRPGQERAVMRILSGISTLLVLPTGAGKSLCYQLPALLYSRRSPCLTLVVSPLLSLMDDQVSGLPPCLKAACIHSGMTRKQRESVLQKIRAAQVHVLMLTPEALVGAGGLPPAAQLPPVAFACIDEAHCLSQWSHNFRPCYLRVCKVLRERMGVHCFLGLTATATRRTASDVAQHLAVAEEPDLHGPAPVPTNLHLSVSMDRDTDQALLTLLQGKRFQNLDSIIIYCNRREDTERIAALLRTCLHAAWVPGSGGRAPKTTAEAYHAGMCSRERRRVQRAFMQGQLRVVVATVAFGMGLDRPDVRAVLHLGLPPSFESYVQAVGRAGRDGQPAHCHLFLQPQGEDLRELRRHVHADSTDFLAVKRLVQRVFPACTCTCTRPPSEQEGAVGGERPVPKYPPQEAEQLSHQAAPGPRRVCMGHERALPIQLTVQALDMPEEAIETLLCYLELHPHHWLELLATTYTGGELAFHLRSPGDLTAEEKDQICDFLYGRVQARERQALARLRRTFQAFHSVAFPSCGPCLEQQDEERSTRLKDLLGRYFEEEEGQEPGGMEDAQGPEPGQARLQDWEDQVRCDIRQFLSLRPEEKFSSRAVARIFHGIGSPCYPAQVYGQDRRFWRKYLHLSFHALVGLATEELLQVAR

[2] = target: T2, RecQ4 427-1208 R894A/R895A (Homo sapiens, UniProt O94761 427-1208, R894A;R895A)
T2 sequence: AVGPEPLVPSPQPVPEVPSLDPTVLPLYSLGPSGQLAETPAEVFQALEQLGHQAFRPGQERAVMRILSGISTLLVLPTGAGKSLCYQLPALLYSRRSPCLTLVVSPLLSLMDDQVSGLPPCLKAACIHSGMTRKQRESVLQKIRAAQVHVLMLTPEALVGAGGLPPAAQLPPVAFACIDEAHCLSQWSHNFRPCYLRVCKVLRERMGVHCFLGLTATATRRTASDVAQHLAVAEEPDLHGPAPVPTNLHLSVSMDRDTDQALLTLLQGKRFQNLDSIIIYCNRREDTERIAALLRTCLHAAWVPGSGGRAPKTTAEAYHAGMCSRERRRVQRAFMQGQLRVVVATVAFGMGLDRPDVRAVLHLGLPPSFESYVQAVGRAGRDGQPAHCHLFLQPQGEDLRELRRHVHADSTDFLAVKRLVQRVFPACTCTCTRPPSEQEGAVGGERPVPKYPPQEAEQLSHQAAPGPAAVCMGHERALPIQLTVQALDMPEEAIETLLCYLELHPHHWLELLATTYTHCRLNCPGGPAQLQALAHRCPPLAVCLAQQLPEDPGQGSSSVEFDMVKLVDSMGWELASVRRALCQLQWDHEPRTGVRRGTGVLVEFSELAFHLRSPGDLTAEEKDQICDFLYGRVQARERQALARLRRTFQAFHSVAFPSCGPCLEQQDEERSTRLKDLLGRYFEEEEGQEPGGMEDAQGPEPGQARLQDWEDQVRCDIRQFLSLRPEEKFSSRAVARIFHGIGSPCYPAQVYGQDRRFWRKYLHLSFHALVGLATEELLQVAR

[3] = target: T3, RecQ4 427-1208 K843A/R844A/R848A (Homo sapiens, UniProt O94761 427-1208, K843A;R844A;R848A)
T3 sequence: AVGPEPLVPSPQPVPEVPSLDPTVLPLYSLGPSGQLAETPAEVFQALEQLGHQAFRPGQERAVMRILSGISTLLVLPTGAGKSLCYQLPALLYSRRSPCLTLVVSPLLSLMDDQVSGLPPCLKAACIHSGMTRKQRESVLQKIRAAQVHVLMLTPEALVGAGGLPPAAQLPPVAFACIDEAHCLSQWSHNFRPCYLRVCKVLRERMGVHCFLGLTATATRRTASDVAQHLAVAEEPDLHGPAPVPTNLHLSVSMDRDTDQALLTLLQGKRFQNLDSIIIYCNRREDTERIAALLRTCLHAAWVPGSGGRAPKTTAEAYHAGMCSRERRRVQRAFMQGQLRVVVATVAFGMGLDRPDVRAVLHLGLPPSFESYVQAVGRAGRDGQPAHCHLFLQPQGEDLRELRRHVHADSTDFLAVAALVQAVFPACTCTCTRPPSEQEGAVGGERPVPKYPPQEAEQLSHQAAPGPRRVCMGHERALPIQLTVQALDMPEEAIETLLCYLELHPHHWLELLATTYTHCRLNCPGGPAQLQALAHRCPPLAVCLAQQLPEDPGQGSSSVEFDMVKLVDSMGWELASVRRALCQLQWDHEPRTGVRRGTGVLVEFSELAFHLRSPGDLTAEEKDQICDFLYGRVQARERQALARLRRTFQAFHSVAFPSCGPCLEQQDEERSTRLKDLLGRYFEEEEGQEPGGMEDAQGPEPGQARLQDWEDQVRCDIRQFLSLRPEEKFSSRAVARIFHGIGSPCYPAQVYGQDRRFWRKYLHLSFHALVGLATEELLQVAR

Measured: binding result

CCATTCCACCCTCTATTTTTTTTTTTTTTT (ssDNA) [T3-Cy3]
binds: all assays above

Source: article PMC5490261, “The structural and functional characterization of human RecQ4 reveals insights into its helicase mechanism”
